In doi:10.1101/2022.08.30.505823 (bioRxiv, 2022):

Experiments:
[1] = biological target: BIRC6 (human, wild type, recombinant) (human) (UniProt Q9NR09); test: cryo-EM structure; conditions: remark: other sources report otherwise
[2] = biological target: BIRC6 (human, wild type, recombinant) (human) (UniProt Q9NR09); test: mass photometry; conditions: remark: other sources report otherwise
[3] = biological target: the molecule itself; test: cryo-EM structure

Molecule	stoichiometry N [1]	stoichiometry N [2]	stoichiometry N [3]
BIRC6 (human, wild type, recombinant), Q9NR09 1-4857	2	2	–
SMAC (natural protein) AVPIAQKSEPHSLSSEALMRRAVSLVTDSTSTFLSQTTYALIEAITEYTKAVYTLTSLYRQYTSLLGKMNSEEEDEVWQVIIGARAEMTSKHQEYLKLETTWMTAVGLSEMAAEAAYQTGADQASITARNHIQLVKLQVEEVHQLSRKAETKLAEAQIEELRQKTQEEGEERAESEQEAYLRED	–	–	2
